Source: publication PMC11940275

What follows are sequences tested against SARS-CoV-2 spike protein, Omicron BA.2 (on SmBiT-BA.2 pseudovirus) (SARS-CoV-2 Omicron BA.2) (UniProt P0DTC2).
With “ATCCAGAGTGACGCAGCATTTCATCGGGTCCAAAAGGGGCTGCTCGGGATTGCGGATATGGACACGT [67-mer aptamer]” the IC50 was 1.64 µM. Work on “CGCAGCACCCAAGAACAAGGACTGCTTAGGATTGCGATAGGTTCGG [46-mer aptamer]” yielded an IC50 of 0.7 µM. Sequence “ATCCAGAGTGACGCAGCATCGAGTGGCTTGTTTGTAATGTAGGGTTCCGGTCGTGGGTTGGACACGGTGGCTTAGT [76-mer aptamer]” has an IC50 of 3.61 µM.
